Source: the supplement of paper PMC9112550, “Optimization of the antimicrobial peptide Bac7 by deep mutational scanning” (BMC Biology, 2022)

tested on: Escherichia coli TOP10; assay: shrunken log2 fold change of peptide-encoding DNA abundance (4.5 h post-induction vs induction); higher = less antimicrobial activity (less host growth inhibition); details: time post-induction: 4.5 h; library: site-saturation at positions 5, 18, 19, 20
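Also: peptides expressed intracellularly from a pBAD plasmid library in pooled LB shake-flask culture, induced with 0.3% L-arabinose, DNA abundance read by NGS, three biological replicates, DESeq2 with apeglm shrinkage.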

Row | Sequence | shrunken log2 fold change
1 | RRIRPRPPRLPRPRPRPGEQPRP | 1.29
2 | RRIRPRPPRLPRPRPRPGHDPRP | 0.235
3 | RRIRPRPPRLPRPRPRPGHFPRP | 0.0437
4 | RRIRPRPPRLPRPRPRPGIFPRP | 0.0736
5 | RRIRPRPPRLPRPRPRPGMHPRP | 0.206
6 | RRIRPRPPRLPRPRPRPGNPPRP | -0.043
7 | RRIRPRPPRLPRPRPRPGPIPRP | 0.148
8 | RRIRPRPPRLPRPRPRPGQFPRP | -0.0723
9 | RRIRPRPPRLPRPRPRPGRIPRP | 0.0185
10 | RRIRPRPPRLPRPRPRPGSKPRP | -0.0791
11 | RRIRPRPPRLPRPRPRPGSVPRP | 0.0512
12 | RRIRPRPPRLPRPRPRPGSWPRP | 0.941
13 | RRIRPRPPRLPRPRPRPGVEPRP | 0.249
14 | RRIRPRPPRLPRPRPRPGVPPRP | 0.301
15 | RRIRPRPPRLPRPRPRPGYGPRP | 0.0799
16 | RRIRPRPPRLPRPRPRPGYNPRP | -0.552
17 | RRIRPRPPRLPRPRPRPHADPRP | -0.161
18 | RRIRPRPPRLPRPRPRPHCGPRP | -0.168
19 | RRIRPRPPRLPRPRPRPHCKPRP | -0.633
20 | RRIRPRPPRLPRPRPRPHCMPRP | -0.195
21 | RRIRPRPPRLPRPRPRPHDAPRP | 0.0201
22 | RRIRPRPPRLPRPRPRPHEYPRP | -0.25

Row | Sequence | shrunken log2 fold change
23 | RRIRPRPPRLPRPRPRPHFNPRP | -0.433
24 | RRIRPRPPRLPRPRPRPHGDPRP | -0.0431
25 | RRIRPRPPRLPRPRPRPHGFPRP | -0.21
26 | RRIRPRPPRLPRPRPRPHHPPRP | -0.224
27 | RRIRPRPPRLPRPRPRPHITPRP | -0.759
28 | RRIRPRPPRLPRPRPRPHIVPRP | -0.481
29 | RRIRPRPPRLPRPRPRPHKDPRP | -0.339
30 | RRIRPRPPRLPRPRPRPHKQPRP | -0.022
31 | RRIRPRPPRLPRPRPRPHKSPRP | -0.283
32 | RRIRPRPPRLPRPRPRPHLGPRP | 0.088
33 | RRIRPRPPRLPRPRPRPHMPPRP | -0.154
34 | RRIRPRPPRLPRPRPRPHNAPRP | -0.284
35 | RRIRPRPPRLPRPRPRPHNGPRP | -0.0321
36 | RRIRPRPPRLPRPRPRPHPEPRP | 0.203
37 | RRIRPRPPRLPRPRPRPHQNPRP | -0.124
38 | RRIRPRPPRLPRPRPRPHRDPRP | -0.0367
39 | RRIRPRPPRLPRPRPRPHRRPRP | -0.0778
40 | RRIRPRPPRLPRPRPRPHRVPRP | 0.164
41 | RRIRPRPPRLPRPRPRPHSKPRP | -0.14
42 | RRIRPRPPRLPRPRPRPHSPPRP | -0.0589
43 | RRIRPRPPRLPRPRPRPHVYPRP | -0.552
44 | RRIRPRPPRLPRPRPRPHWAPRP | -0.0709

Row | Sequence | shrunken log2 fold change
45 | RRIRPRPPRLPRPRPRPHWMPRP | 0.0365
46 | RRIRPRPPRLPRPRPRPHWNPRP | -0.447
47 | RRIRPRPPRLPRPRPRPHWRPRP | 0.0957
48 | RRIRPRPPRLPRPRPRPHYSPRP | -0.167
49 | RRIRPRPPRLPRPRPRPIAWPRP | 0.266
50 | RRIRPRPPRLPRPRPRPICNPRP | -0.367
51 | RRIRPRPPRLPRPRPRPIDCPRP | -0.0101
52 | RRIRPRPPRLPRPRPRPIDHPRP | 0.0529
53 | RRIRPRPPRLPRPRPRPIECPRP | -0.206
54 | RRIRPRPPRLPRPRPRPIGFPRP | 0.2
55 | RRIRPRPPRLPRPRPRPIIIPRP | -0.593
56 | RRIRPRPPRLPRPRPRPIIQPRP | -0.402
57 | RRIRPRPPRLPRPRPRPIMAPRP | -0.0956
58 | RRIRPRPPRLPRPRPRPIMYPRP | -0.175
59 | RRIRPRPPRLPRPRPRPINIPRP | -1.15
60 | RRIRPRPPRLPRPRPRPIQAPRP | 0.144
61 | RRIRPRPPRLPRPRPRPIQLPRP | -0.0767
62 | RRIRPRPPRLPRPRPRPIQPPRP | -0.0445
63 | RRIRPRPPRLPRPRPRPIRIPRP | -0.149
64 | RRIRPRPPRLPRPRPRPIRQPRP | -0.0697
65 | RRIRPRPPRLPRPRPRPITYPRP | -0.782
66 | RRIRPRPPRLPRPRPRPIVAPRP | 0.133

Row | Sequence | shrunken log2 fold change
67 | RRIRPRPPRLPRPRPRPIVCPRP | -0.228
68 | RRIRPRPPRLPRPRPRPIVGPRP | -0.00131
69 | RRIRPRPPRLPRPRPRPIVRPRP | 0.029
70 | RRIRPRPPRLPRPRPRPKAGPRP | 0.285
71 | RRIRPRPPRLPRPRPRPKCSPRP | -0.197
72 | RRIRPRPPRLPRPRPRPKEFPRP | -0.0187
73 | RRIRPRPPRLPRPRPRPKENPRP | -0.102
74 | RRIRPRPPRLPRPRPRPKFMPRP | -0.171
75 | RRIRPRPPRLPRPRPRPKHNPRP | -0.303
76 | RRIRPRPPRLPRPRPRPKKQPRP | -0.15
77 | RRIRPRPPRLPRPRPRPKLNPRP | 0.0891
78 | RRIRPRPPRLPRPRPRPKLYPRP | 0.0311
79 | RRIRPRPPRLPRPRPRPKMSPRP | -0.0151
80 | RRIRPRPPRLPRPRPRPKNYPRP | -0.428
81 | RRIRPRPPRLPRPRPRPKPGPRP | 0.684
82 | RRIRPRPPRLPRPRPRPKPHPRP | 0.294
83 | RRIRPRPPRLPRPRPRPKQGPRP | 0.0197
84 | RRIRPRPPRLPRPRPRPKQNPRP | 0.0525
85 | RRIRPRPPRLPRPRPRPKQQPRP | 0.214
86 | RRIRPRPPRLPRPRPRPKSSPRP | -0.278
87 | RRIRPRPPRLPRPRPRPKSWPRP | 0.258
88 | RRIRPRPPRLPRPRPRPKTCPRP | -0.124

Row | Sequence | shrunken log2 fold change
89 | RRIRPRPPRLPRPRPRPKVCPRP | 0.0118
90 | RRIRPRPPRLPRPRPRPKVHPRP | -0.132
91 | RRIRPRPPRLPRPRPRPKYEPRP | -0.203
92 | RRIRPRPPRLPRPRPRPKYLPRP | -0.0768
93 | RRIRPRPPRLPRPRPRPKYTPRP | -0.414
94 | RRIRPRPPRLPRPRPRPLAIPRP | 0.00474
95 | RRIRPRPPRLPRPRPRPLCTPRP | 1.09
96 | RRIRPRPPRLPRPRPRPLDLPRP | -0.102
97 | RRIRPRPPRLPRPRPRPLDSPRP | -0.0664
98 | RRIRPRPPRLPRPRPRPLFMPRP | -0.38
99 | RRIRPRPPRLPRPRPRPLGCPRP | 0.376
100 | RRIRPRPPRLPRPRPRPLGKPRP | -0.361
101 | RRIRPRPPRLPRPRPRPLGWPRP | 0.442
102 | RRIRPRPPRLPRPRPRPLHDPRP | -0.034
103 | RRIRPRPPRLPRPRPRPLLEPRP | 0.059
104 | RRIRPRPPRLPRPRPRPLLSPRP | 0.0345
105 | RRIRPRPPRLPRPRPRPLLVPRP | 0.1
106 | RRIRPRPPRLPRPRPRPLMNPRP | -0.47
107 | RRIRPRPPRLPRPRPRPLNGPRP | -0.0765
108 | RRIRPRPPRLPRPRPRPLNRPRP | -0.0518
109 | RRIRPRPPRLPRPRPRPLPPPRP | 0.36
